Test [1] has as its system CfEcR-DEF. Put plainly: GAL4/mutant CfEcR-DEF + VP16/LmUSP-EF GAL4-driven luciferase reporter transactivation in NIH3T3 cells. As to conditions: NIH3T3 cells, relative to Gal4/wild-type CfEcR-DEF switch activity; for Fold increase over WT, 2.5 μM GS™-E: 2.5 μM GS™-E non-steroidal ligand; for Fold increase over WT, 2.5 μM PonA: 2.5 μM PonA steroidal ligand. It counts as cell-based, Choristoneura fumiferana. The method, then: DNAs corresponding to the various switch constructs outlined in Example 1, specifically switches 1.1-1.13, were transfected into mouse NIH3T3 cells (ATCC) or L57 cells (Dr. Peter Cherbas; Indiana University) as follows. Standard methods for culture and maintenance of the cells were followed. […] Superfect™ (Qiagen Inc.) was used for 3T3 cells and Lipofectamine™ (LifeTechnologies) was used for L57 cells as the transfection reagents. For 12-well plates, 4 μl of Superfect™ or Lipofectamine™ was mixed with 100 μl of growth medium. One μg of reporter construct and 0.25 μg of each receptor construct of the receptor pair to be analyzed were added to the transfection mix. […] The cells were harvested and reporter activity was assayed.
Cells were harvested 40 hours after adding ligands. […] Twenty μl of lysate were assayed.
Briefly, Applicants mutated amino acid residues predicted to be critical for ecdysteroid binding into alanine and created GAL4/mutantCfEcR-DEF cDNA gene expression cassettes as described in Example 1 above using the Quikchange PCR-mediated site-directed mutagenesis kit (Stratagene, La Jolla, Calif.). The mutated and the WT cDNAs were tested in GAL4-driven luciferase reporter assays.
(§1) DNAs corresponding to the various switch constructs outlined in Example 1, specifically switches 1.1-1.2, were transfected into mouse NIH3T3 cells (ATCC) as follows. […] Two μl of Superfect™ was mixed with 100 μl of growth medium and 50 ng of either GAL4/wild-type EcR or Gal4/mutant EcR cassette, 50 ng of VP16/LmUSP-EF and 200 ng of pFRLuc were added to the transfection mix. […] The cells were harvested and reporter activity was assayed as described above.
For orientation: In a reporter assay the amount or activity of a reporter protein is the signal.

Test [2] has as its system DmEcR-CDEF. As to the kind of experiment: GAL4/DmEcR-CDEF wild-type and mutants, luciferase reporter transactivation in NIH3T3 cells. The class given is cell-based, Drosophila melanogaster. As to conditions: GAL4/DmEcR-CDEF + VP16/LmUSP-EF + pFRLUC, 48 hours. The procedure:
as §1
Applicants mutated amino acid residues predicted to be critical for ecdysteroid binding and created GAL4/mutantDmEcR-CDEF cDNA gene expression cassettes as described in Example 1 above using PCR-mediated site-directed mutagenesis. The mutated and the WT cDNAs corresponding to the various switch constructs outlined above in Examples 1.8 and 1.9 were made and tested in reporter assays in NIH3T3 cells as described in Example 2. Each GAL4/DmEcR-CDEF construct, VP16/LmUSP-EF, and pFRLUC were transfected into NIH3T3 cells and the transfected cells were treated with 2.5 μM GS-™E or Ponasterone A. The cells were harvested and the reporter activity was measured at 48 hours after addition of ligand. The fold induction was calculated by dividing reporter activity in the presence of ligand with the reporter activity in the absence of ligand. From the fold induction, percent wild-type activity was calculated for each mutant.

In test [3] the test system is DmEcR-CDEF. Put plainly: VP16/DmEcR-CDEF wild-type and mutants, 6xEcRE β-gal reporter transactivation in insect L57 cells. The class given is cell-based, Drosophila melanogaster. As to conditions: for Fold increase over WT, 1 μM 20-hydroxyecdysone / Fold increase over WT, 1 μM GS™-E / reduction in steroid activity: VP16/DmEcR-CDEF; for reduction in steroid activity / steroid activity (summary of Table 14): 20E; for reduction in steroid activity: versus wild-type; for non-steroid activity (summary of Table 14): GS™-E; for non-steroid activity (summary of Table 14) / steroid activity (summary of Table 14): DmEcR mutants. The method, then:
The wild-type and mutant DmEcR-CDEF receptors were also used to make VP16/wild-type or mutantDmEcR-CDEF constructs as described in Example 1.10 and 1.11. VP16DmEcR-CDEF and a 6×EcREβ-gal reporter were transfected into L57 cells and the transfected cells were treated with 1 uM 20-hydroxyecdysone (20E) or GS™-E. The cells were harvested, lysed and the reporter activity was measured as described above in Example 6. The fold induction was calculated by dividing reporter activity in the presence of ligand with the reporter activity in the absence of ligand. From the fold induction, percent wild-type activity was calculated for each mutant.

Residue numbers refer to the chain shown, from its start. Numbers in names are those of the source.

B1: F48A: CfEcR-DEF LBD substitution mutant, Phenylalanine (F) to Alanine (A) (protein, listed as Choristoneura fumiferana)
chain: LTANQQFLIARLIWYQDGYEQPSDEDLKRITQTWQQADDENEESDTPARQITEMTILTVQLIVEFAKGLPGFAKISQPDQITLLKACSSEVMMLRVARRYDAASDSVLFANNQAYTRDNYRKAGMAYVIEDLLHFCRCMYSMALDNIHYALLTAVVIFSDRPGLEQPQLVEEIQRYYLNTLRIYILNQLSGSARSSVIYGKILSILSELRTLGMQNSNMCISLKLKNRKLPPFLEEIWDV
For the molecule B1, in test [1], the “Fold increase over WT, 2.5 μM GS™-E” value is given as 0.007 fold and the “Fold increase over WT, 2.5 μM PonA” value turned out to be 0.007 fold.

B2: I51A: CfEcR-DEF LBD substitution mutant, Isoleucine (I) to Alanine (A) (protein, listed as Choristoneura fumiferana)
chain: B1 chain with A48F, I51A
Turning to B2, in test [1], the “Fold increase over WT, 2.5 μM GS™-E” value was 0.003 fold and the “Fold increase over WT, 2.5 μM PonA” value is given as 0.004 fold.

B3: G121R: DmEcR-CDEF LBD substitution mutant, Glycine (G) to Arginine (R) (protein)
chain: LTYNQLAVIYKLIWYQDGYEQPSEEDLRRIMSQPDENESQTDVSFRHITEITILTVQLIVEFAKGLPAFTKIPQEDQITLLKACSSEVMMLRMARRYDHSSDSIFFANNRSYTRDSYKMARMADNIEDLLHFCRQMFSMKVDNVEYALLTAIVIFSDRPGLEKAQLVEAIQSYYIDTLRIYILNRHCGDSMSLVFYAKLLSILTELRTLGNQNAEMCFSLKLKNRKLPKFLEEIWDV
modifications: Drosophila melanogaster
For B3, in test [2], the “Fold increase over WT, 2.5 μM GS™-E” value is 0.0075 fold and the “Fold increase over WT, 2.5 μM Ponasterone A” value was found to be 0.05 fold. Moreover, in test [3], the “Fold increase over WT, 1 μM 20-hydroxyecdysone” value is listed as 0.5 fold; the “Fold increase over WT, 1 μM GS™-E” value is 0.92 fold; the “reduction in steroid activity” value came out at 50%; the “non-steroid activity (summary of Table 14)” value (“non-steroid activity” below) is “minimal effect”.

B4: A107P: DmEcR-CDEF LBD substitution mutant, Alanine (A) to Proline (P) (protein)
chain: B3 chain with A107P, R121G
modifications: Drosophila melanogaster
On to B4, for which, in test [3], the “Fold increase over WT, 1 μM 20-hydroxyecdysone” value amounted to 0.09 fold; the “Fold increase over WT, 1 μM GS™-E” value was 0.9 fold; the “steroid activity (summary of Table 14)” value is listed as “loss of most steroid activity”; the “non-steroid activity” value is “very little effect”.

B5: C217S: DmEcR-CDEF LBD substitution mutant, Cysteine (C) to Serine (S) (protein)
chain: B3 chain with R121G, C217S
modifications: Drosophila melanogaster
Turning to B5, in test [2], the “Fold increase over WT, 2.5 μM GS™-E” value was found to be 0.014 fold and the “Fold increase over WT, 2.5 μM Ponasterone A” value came to 0.0064 fold. In test [3], the “Fold increase over WT, 1 μM 20-hydroxyecdysone” value amounted to 0.39 fold; the “Fold increase over WT, 1 μM GS™-E” value came to 0.92 fold; the “reduction in steroid activity” value is given as 61%; the “non-steroid activity” value was “minimal effect”.

B6: N213A: DmEcR-CDEF LBD substitution mutant, Asparagine (N) to Alanine (A) (protein)
chain: B3 chain with R121G, N213A
modifications: Drosophila melanogaster
As to B6, in test [3], the “Fold increase over WT, 1 μM 20-hydroxyecdysone” value was determined as 0.01 fold; the “Fold increase over WT, 1 μM GS™-E” value amounted to 0.08 fold; the “steroid activity (summary of Table 14)” value is “lost sensitivity”; the “non-steroid activity” value is “lost sensitivity”.
